Here are results for 23 molecules from patent publication US20060235215A1 (published 2006).

T1: O. sativa Chitinase, Class III, bait fragment aa 10-200 (Oryza sativa)
T1 construct: bait; also called OsCHIB1; PN19651
T1 chain: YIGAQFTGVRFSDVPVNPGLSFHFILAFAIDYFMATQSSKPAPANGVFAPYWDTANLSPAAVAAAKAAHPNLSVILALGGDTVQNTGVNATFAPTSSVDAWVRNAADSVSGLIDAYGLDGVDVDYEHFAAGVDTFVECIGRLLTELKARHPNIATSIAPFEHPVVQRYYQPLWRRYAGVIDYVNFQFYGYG

T2: Elicitor responsive protein, bait fragment aa 50-145 (Oryza sativa, UniProt Q0JBH9 50-144)
T2 construct: bait; also called OsERP; PN20696
T2 sequence: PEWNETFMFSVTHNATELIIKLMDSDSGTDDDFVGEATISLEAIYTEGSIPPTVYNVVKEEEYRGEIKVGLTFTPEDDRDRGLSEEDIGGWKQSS

T3: O. sativa Chilling-Inducible Protein CAA90866, bait clone aa 100-250 (Oryza sativa)
T3 construct: bait; also called OsCAA90866; PN20311
T3 chain: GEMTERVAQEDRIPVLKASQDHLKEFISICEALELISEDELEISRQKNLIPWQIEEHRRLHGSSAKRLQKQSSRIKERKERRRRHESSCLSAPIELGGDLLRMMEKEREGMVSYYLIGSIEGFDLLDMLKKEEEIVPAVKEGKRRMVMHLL

B1: Novel Protein 23268, Similar to Phosphoribosylanthranilate Transferase, Chloroplast Precursor, Fragment, prey clone aa 12-200 (other)
chain: SEEEAEATLRLLLEEENEARIAAFLVLLRAKGETYEEIVGLAKAMIGCCVRVDGLDDAVDIVGTGGDGADTVNISTGSTILAAAAGAKVAKQGSRASSSACGSADGIKRCVNEVGVGFMMSANYHPAMKIVKPVRKKLKIKTVFNILGPLLNPARVPYAVIGVYHENIVTKMAKAAQKFGMKRALVVHS
notes: prey; AD fusion; input trait library; two clones; also called OsPN23268; Os23268
B2: O. sativa Putative Proline-Rich Protein AAK63900, prey clone aa 122-224 (other)
chain: AAVAGKTHYRSALCASVTICGPIKKKIIDHFHKKPVPPKPEPKPEPPKPKPEPEHPFLDHIHKKEKHFFDHFHKKPVPPKPEPKPEPKPQPAPEYHNPSPPAN
notes: prey; AD fusion; input trait library; also called OsAAK63900; PN23266
B3: Novel Protein PN26645, Putative Protein Disulfide Isomerase-Related Protein Precursor, prey clone aa 24-164 (other)
chain: PLPEACPVPTAAEEILGPGGTCTTLDRRGDPVGVIEGDEVTLAKAITLLHMNKDDYIAVLFYASWCPFSQECKPNFEILASLFPSIRHFAFEESSIRPSIISRYGIHGFPTLFLLNSTMRVRYHGPRTVKSLAAFYRDVSG
notes: prey; AD fusion; input trait library; also called OsPN26645
B4: Hypothetical Protein ORF020300-2233.2, Putative PP2A Regulatory Subunit, Similar to OsCAA90866, prey clone aa 118-388 (other)
chain: SQDHLKEFISICEALELISEDELELSRQKQPDTMANRRAQKAARFKRQKAAETKLLEIKERKERRRRSLRAAALSAPIEAGEEDAFEDDGEEEREAWLATISLALCKAFDLLDMLKKEEEMLLAVKERQAKDGNAFAREMLDERTKKAEAWHHNAANRAPYSKPADPITCATFAQDVIEGRASVSQAHEHKHQPLIFGPASLVGGGLTSERERMAAQVFQPSYRLPTMSIEEAGLREMKMMEKWQERTAKMIQESNSAWHKDGSRSAQEDE
notes: prey; AD fusion; input trait library; also called OsORF020300-2233.2
B5: Hypothetical Protein ORF020300-2233.2, Putative PP2A Regulatory Subunit, Similar to OsCAA90866, prey clone aa 93-387 (other)
chain: LLVPYYLGEMTERVAQEDRIPVLKASQDHLKEFISICEALELISEDELELSRQKQPDTMANRRAQKAARFKRQKAAETKLLEIKERKERRRRSLRAAALSAPIEAGEEDAFEDDGEEEREAWLATISLALCKAFDLLDMLKKEEEMLLAVKERQAKDGNAFAREMLDERTKKAEAWHHNAANRAPYSKPADPITCATFAQDVIEGRASVSQAHEHKHQPLIFGPASLVGGGLTSERERMAAQVFQPSYRLPTMSIEEAGLREMKMMEKWQERTAKMIQESNSAWHKDGSRSAQED
notes: as for B4
B6: Novel Protein PN29041, Fragment, Similar to A. thaliana Putative ATPase, prey clone aa 5-108 (other)
chain: VQIRRALRALVDDHTDGLMDFEDTEVRSSEETDALEEARLAIEQVVIPKGESVQLLPRPPSIIASQVDLVESFKLKWESIGQEPNACLRILPQFVGVEEGGKSV
notes: prey; AD fusion; input trait library; two clones; also called OsPN29041
B7: Novel Protein PN22823, Similar to ABC Transporter Proteins, prey clone aa 25-106 (other)
chain: SSSGKKVPLFSLFRYADRLDVLLMVVGTVGALGNGISQPLMTVLFGNVINSFGANTSGSVLRSVTKVKVSCWTMAGERQSAR
notes: prey; AD fusion; input trait library; also called OsPN22823
B8: Novel Protein PN29984, prey clone aa 5-41 (other)
chain: SSGTTSRPTASRTQQTKGRLTVTISLKAYSPGRTRSG
notes: prey; AD fusion; input trait library
B9: Novel Protein PN29984, prey clone aa 1-38 (other)
chain: APSSSSGTTSRPTASRTQQTKGRLTVTISLKAYSPGRT
notes: as for B8
B10: Novel protein PN29983, prey clone aa 1-131 (other)
chain: GVETVVTDTAGNKVVVTGAADAAELKERIEARTKKAVQIVSAGAGPPPKKDKEEKKDKDKKGGGDDKKAEKEKGGGGGDKKAEKEKGGGDKPKEEKKAKEPKEETVTLKIRLHCEGCIDRIKRRICKIKGG
notes: as for B8
B11: Novel protein PN30857, prey clone aa 1-148 (other)
chain: QDTRPLQAQRRRHGGGPQDRQREPSQGDFLRRQREEHPGGEEDRAPHGAGGHAAAGEGRGPRAGEHPQHQGGAAGAVGGGREGGGRAHLLRPRRHRDIGDRVGHTYCLSRLRRIAQNEQPSIHPCPSLAGQVIIRWEFRIGRDNNTFQ
notes: as for B8
B12: Novel protein PN30844, prey clone aa 1-64 (other)
chain: VAVRKKETRDGAMQTMPSRVQQGAADFEETLFVRCHLYCSGGAGTGKPLRFEPRPFLLSAVAVE
notes: as for B8
B13: Isp-4 like PN30870, prey clone aa 1-446 (other)
chain: GEEDEHPHEGRAGVERRRQHVVVLLPPPLAVLEHEVVEDGARDEPARDVGRRRRRHPGEPVGDDGDVDERDPLLLRERPAEQPHRHGQHGAGEEQPHQVAVQAVAAEQPGGADEPPDHRRVERDPVLGARPRAVRVQRLHVADVVDAAQHPPRHRQVHHAGDHRAHQLRRVHAPRRDLHVVPQLEVREERQRVHRADPPVDLEQQVRDRLPRQRVPDHELRDDVVPRLLVGGGLDDADGEGDDEGEGEGEEHPPPRQLHLLPVHERHDQRHGDAADEQHEEPPLRHLLVPPHQLRVHVHLRRRGAHRRPALPPDVPAVEQRHVHDRRREPQEPGPDGDGEQRAQVQLPVALVRRHVEVELPREHLGGVVLLPGRREQLVGEDWELPRVERVELPVAERHDEVDEHDEARGGVGDGRPRRHQRAPVVRRDAGPVQCEGADAEAVVAG
notes: as for B8
B14: Pectinesterase-like PN30845, prey clone aa 1-64 (other)
chain: GDQGRTYLFRVSNVGVKTSVNVRIQGHSLRLVEVEGTHPVQNVYDSLDVHVGQSVAFLVTLDKA
notes: as for B8
B15: Ubiquitin specific protease-like PN30843, prey clone aa 164-221 (other)
chain: RALQNFTAEELLDGGEKQYQCQRCRKKVVAKKKFTIDKAPYVLTIHLKRFSPFNPREK
notes: as for B8
B16: NAD(P) binding domain protein PN30868, prey clone aa 167-336 (other)
chain: YNELAQLRAGKSSKSKLLIAKFKSPKSLNGWEVDQGSYFPNTFASRFDEGIDASFDFSEAGQAVFSGFVFTRGGYVEISKRLSLPLGSTLDRYDGLLFSVGGNGRSYVVILETGPLADTSQSKKYFARMTTKVGFCRVRVPFSAFRPVNPQDPPLDPFLVHTLTIRFEPK
notes: as for B8
B17: Novel Protein PN29883, Fragment, prey clone aa 58-175 (other)
chain: YGQLKAAQPFFLLAGPNVIESEEHVLKMAKHIKGITTKLGLPLVFKSSFDKANRTSSKSFRGPGLEEGLKILEKVKATYDIPVVTDVHESHQCEAAGRVADIIQIPAFFCRQTDLLVA
notes: prey; AD fusion; output trait library; also called OsPN29883
B18: Novel Protein PN23045, prey clone aa 240-287 (other)
chain: ILSKLVQAKELLKEYVEREKKKREERSETPKSNEAVTKFDGSLNSMRH
notes: prey; AD fusion; input trait library; two clones; also called OsPN23045
B19: O. sativa Putative Pyrrolidone Carboxyl Peptidase, prey clone aa 92-222 (other)
chain: FGVNSGTTRFALENQAINEATFRCPDELGWKPQRAPIVSSDGSISNLRKTTVPVNEVNKSLQQMGFDVAPSDDAGRFVCNYVYYQSLRFAEQRGIKSLFVHFPLFTTISEEVQMNFVATLLEVLASQNYAQ
notes: prey; AD fusion; input trait library; two clones; also called OsAAG46136; PN23186
B20: Hypothetical Protein ORF020300-2233.2, Putative PP2A Regulatory Subunit, Similar to OsCAA90866, prey clone aa 1-206 (other)
chain: MVEVEEVSNKMQAQMRLHPAAAAEEEDADLPLPALFDKASHLHSLASSSSLDQEGIRKGVDLLRRCDEMVSKLGLFSSNETKDDVSTANLKYLLVPYYLGEMTERVAQEDRIPVLKASQDHLKEFISICEALELISEDELELSRQKQPDTMANRRAQKAARFKRQKAAETKLLEIKERKERRRRSLRAAALSAPIEAGEEDAFEDD
notes: prey; AD fusion; output trait library; three clones; also called OsORF020300-2233.2
B21: Hypothetical Protein ORF020300-2233.2, Putative PP2A Regulatory Subunit, Similar to OsCAA90866, prey clone aa 1-190 (other)
chain: MVEVEEVSNKMQAQMRLHPAAAAEEEDADLPLPALFDKASHLHSLASSSSLDQEGIRKGVDLLRRCDEMVSKLGLFSSNETKDDVSTANLKYLLVPYYLGEMTERVAQEDRIPVLKASQDHLKEFISICEALELISEDELELSRQKQPDTMANRRAQKAARFKRQKAAETKLLEIKERKERRRRSLRAAA
notes: as for B20
B22: O. sativa Chilling-Inducible Protein CAA90866, prey clone aa 1-126 (other)
chain: MVEVEEVSNKMQVQMRLHPAAAAEEEDADLPLPALFDKASHLHSLASSSSLDQEGIRKGVDLLRRCDEMVSKVGLFSSNETKDDISTANLKYLLVPYYLGEMTERVAQEDRIPVLKASQDHLKEFI
notes: prey; AD fusion; output trait library; also called OsCAA90866; PN20311
B23: Novel Protein PN23225, Similar to Triticum aestivum Initiation Factor (iso)4f p82 Subunit, prey clone aa 639-792 (other)
chain: FGIRILDEAQQCIEELQCPEYYSEIVKEAINLALDKGPNFIDPLVRLLEHLHTKKIFKTEDLKTGCLLYAALLEDIGIDLPLAPALFGEVVARLSLSCSLSFEVVEEILKAVEDTYFRKGIFDAVMKTMGGNSSGQAILSSHAVVIDACNKLLK
notes: prey; AD fusion; input trait library; also called OsPN23225

The target in one test is T4, O. sativa Serine/Threonine Protein Phosphatase PP2A-2, Catalytic Subunit, bait fragment aa 1-308 (Oryza sativa, UniProt A2XN40 1-307).
T4 construct: bait; also called OsPP2A-2; PN20254
T4 sequence (A2XN40 whole entry, the tested form may be a part): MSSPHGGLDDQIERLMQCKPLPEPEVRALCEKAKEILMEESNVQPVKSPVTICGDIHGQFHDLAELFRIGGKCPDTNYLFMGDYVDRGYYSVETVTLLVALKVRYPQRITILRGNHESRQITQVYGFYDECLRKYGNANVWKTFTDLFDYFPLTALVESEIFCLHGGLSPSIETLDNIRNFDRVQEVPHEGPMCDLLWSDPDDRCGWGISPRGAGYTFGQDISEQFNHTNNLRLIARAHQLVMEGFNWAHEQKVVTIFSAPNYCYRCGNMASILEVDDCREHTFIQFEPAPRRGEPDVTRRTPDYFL
Description: yeast two-hybrid.
For the molecule B1, the binding result is “binds”. On the same count and under the same terms, the same measure for B2: “binds”. Still for that read-out and setting: the same measure for B3: “binds”; for B4: “binds”. For B5, the binding result was “binds”.

The target of a further test is T1, O. sativa Chitinase, Class III, bait …. Description: yeast two-hybrid. The procedure:
Yeast carrying the target gene construct was combined with yeast carrying the activation domain library. The two yeast strains mated to form diploid yeast and were plated on media that selected for expression of one or more Ga14p-responsive reporter genes. Thus, both hybrid proteins (i.e., the target “bait” protein and the activation domain “prey” protein) were expressed in a yeast reporter strain where an interaction between the test proteins results in transcription of the reporter genes […]. Colonies that arose after incubation were selected for further characterization. The activation domain plasmid was isolated from each colony obtained in the two-hybrid search. The sequence of the insert in this construct was obtained by sequence analysis (e.g., Sanger's dideoxy nucleotide chain termination method; see Ausubel et al., 1988, including updates up to 2002). Thus, the identity of positives obtained from these searches was determined by sequence analysis against proprietary and public (e.g., GENBANK®) nucleic acid and protein databases.
This example provides newly characterized rice proteins interacting with a rice chitinase, class III (OsCHIB1), and with rice cellulose synthase catalytic subunit, RSW1-like (OsCS). An automated, high-throughput yeast two-hybrid assay technology (provided by Myriad Genetics Inc., Salt Lake City, Utah) was used to search for protein interactions with the chitinase and cellulose synthase bait proteins.
Turning to B6, the binding result was “binds”. On the same count and under the same terms, the same measure for B7: “binds”.

In a further test the target is T2, Elicitor responsive protein, bait …. The test is described as follows: yeast two-hybrid.
For the molecule B8, the binding result was “binds”. In the case of B9, the binding result was “binds”. On the same count and under the same terms, then B10, with “binds”. The same measure, in the same setting: the same measure for B11: “binds”. On to B12, for which the binding result is recorded as “binds”.

For the molecule B13, the binding result is listed as “binds”.

As for B14, the binding result is on record as “binds”. Still for that read-out and setting: then B15, with “binds”; and B16, with “binds”.

For a further test, the target named is T3, O. sativa Chilling-Inducible Protein …. Description: yeast two-hybrid.
Consider B17, for which the binding result is recorded as “binds”. On the same count and under the same terms, then B18, with “binds”. On the same count and under the same terms, then B19, with “binds”; and B20, with “binds”. Consider B21, for which the binding result is on record as “binds”. Take B22: the binding result was “binds”. Still for that read-out and setting: the same measure for B23: “binds”.
